{"source": "patent US20130189787A1", "about": "(OPX BIOTECHNOLOGIES ,INC., priority 2008, published 2013)", "key": {"[1]": {"system": "E. coli strain BW25113", "settings": "20 g/L 3-HP, putrescine 0.1 g/L", "quoted_text": "The control E. coli strain BW25113 and 22 of its derivatives, each derivative having a deletion of a respective one of 22 aldehyde dehydrogenases or related genes (predicted aldehyde dehydrogenases via homology, www.ecocyc.org) were cultured as described in methods in the Common Methods Section. […] These strains each contain a kanamycin marker in place of the deleted gene.\nIn addition, an Eppendorf external column heater is used and the data are collected using an SRI (Torrance, Calif.) analog-to-digital converter linked to a standard desk top computer. Data are analyzed using the SRI Peak Simple software. A Coregel 64H ion exclusion column (Transgenomic, Inc., San Jose, Calif.) is employed. The column resin is a sulfonated polystyrene divinyl benzene with a particle size of 10 μm and column dimensions are 300×7.8 mm The mobile phase consisted of sulfuric acid (Fisher Scientific, Pittsburgh, Pa. USA) diluted with deionized (18 MΩcm) water to a concentration of 0.02 N and vacuum filtered through a 0.2 μm nylon filter. The flow rate of the mobile phase is 0.6 mL/min. The UV detector is operated at a wavelength of 210 nm and the column is heated to 60° C.\nThe next day, 250 uL of the overnight cultures were inoculated into 25 mL of M9+kanamycin. […] All the intracellular and extracellular metabolites were analyzed by HPLC as described in the Common Methods Section, Subsection III."}, "[2]": {"system": "E. coli", "settings": "known to be toxic; cited from earlier work"}, "[3]": {"system": "gram negative and gram positive bacteria", "settings": "wide range of gram negative and gram positive bacteria; concentrations as low as; cited from earlier work"}, "[4]": {"test": "Enzyme activity assays for dehydrogenase enzymes with 3-HP as a substrate (340 nm spectrophotometric)", "assay_type": "biochemical, E. coli", "settings": "1 mM 3-HP, 1 mM cofactor, 1 hour at room temperature, change in absorption at 340 nm; clarified lysates or purified enzymes", "experimental": "Samples of these enzymes were isolated either as clarified lysates or as purified enzymes as described in the method reported above. As these dehydrogenases use NAD+, NADH, NADP+, NADPH or all of these molecules as cofactors for their reactions depending on reaction direction, all enzymes where tested with their known cofactors. For enzymes where the specific cofactors have not been determined or maybe unclear, all possible cofactors were evaluated.\n(§1) A spectrophotometric assay was used to evaluate enzyme activity. […] Replicates of reactions were carried out to compare reactions in the presence or absence or 3-HP, and with and without enzyme. Enzymatic activities were confirmed by comparing the change in the 340 nm absorption values after 1 hour incubations to reactions performed in buffer containing 1 mM cofactor as a baseline. […] Furthermore, activity of the purified aldB enzyme was confirmed with its natural substrate (1 mM […]) as in FIG. 9B.\n(§2) Reactions were carried out using one of two reaction buffers. AldA, AldB, LacZ, and Usg reactions were performed in a buffer consisting of 100 mM potassium phosphate buffer pH 7.4 with 50 mM sodium chloride. Likewise, puuC reactions were performed in a buffer consisting of 200 mM sodium bicarbonate pH 9.2 with 10 mM dithiothreitol and 30 micromolar ferrous sulphate. Where stated, all cofactors were used at 1 mM in the final reaction buffer. […] After one hour incubations at room temperature, the samples were diluted 1 to 20 in water and measured with a Beckmann DU530 spectrometer set at 340 nm."}, "[5]": {"test": "Enzyme activity assay of purified aldB with its natural substrate", "assay_type": "biochemical, E. coli", "settings": "1 mM acetate, FIG. 9B", "experimental": "as §1, §2"}}, "data": [{"molecule": "NCCCCN", "note": "[putrescine]", "values": [{"measurement": "level of aldehyde in response to 3-HP", "setting": "[1]; 20 hours, FIG. 7", "value": "greater level"}, {"measurement": "level of aldehyde in response to 3-HP in a strain lacking the puuC gene", "setting": "[1]; puuC deletion strain, FIG. 8", "value": "elevated levels"}]}, {"molecule": "O=CCCO", "note": "[3-HPA, 3-hydroxypropionaldehyde]", "values": [{"measurement": "toxicity to E. coli", "setting": "[2]", "value": "toxic"}, {"measurement": "concentration toxic to bacteria", "setting": "[3]", "value": "≥ 15", "unit": "mM"}]}, {"molecule": "usg: E. coli aldehyde dehydrogenase not listed in Table 1 (SEQ ID NO: 121) (protein, listed as Escherichia coli) MSEGWNIAVLGATGAVGEALLETLAERQFPVGEIYALARNESAGEQLRFGGKTITVQDAAEFDWTQAQLAFFVAGKEATAAWVEEATNSGCLVIDSSGLFALEPDVPLVVPEVNPFVLTDYRNRNVIAVPDSLTSQLLAALKPLIDQGGLSRISVTSLISASAQGKKAVDALAGQSAKLLNGIPIDEEDFFGRQLAFNMLPLLPDSEGSVREERRIVDEVRKILQDEGLMISASVVQAPVFYGHAQMVNFEALRPLAAEEARDAFVQGEDIVLSEENEFPTQVGDASGTPHLSVGCVRNDYGMPEQVQFWSVADNVRFGGALMAVKIAEKLVQEYLY", "values": [{"measurement": "enzymatic activity using 3-HP as a substrate", "setting": "[4]", "value": "showed activity"}]}, {"molecule": "aldA: E. coli aldehyde dehydrogenase A, his-tagged, over-expressed (SEQ ID NO 023) (protein, listed as Escherichia coli, His tag) MSVPVQHPMYIDGQFVTWRGDAWIDVVNPATEAVISRIPDGQAEDARKAIDAAERAQPEWEALPAIERASWLRKISAGIRERASEISALIVEEGGKIQQLAEVEVAFTADYIDYMAEWARRYEGEIIQSDRPGENILLFKRALGVTTGILPWNFPFFLIARKMAPALLTGNTIVIKPSEFTPNNAIAFAKIVDEIGLPRGVFNLVLGRGETVGQELAGNPKVAMVSMTGSVSAGEKIMATAAKNITKVCLELGGKAPAIVMDDADLELAVKAIVDSRVINSGQVCNCAERVYVQKGIYDQFVNRLGEAMQAVQFGNPAERNDIAMGPLINAAALERVEQKVARAVEEGARVAFGGKAVEGKGYYYPPTLLLDVRQEMSIMHEETFGPVLPVVAFDTLEDAISMANDSDYGLTSSIYTQNLNVAMKAIKGLKFGETYINRENFEAMQGFHAGWRKSGIGGADGKHGLHEYLQTQVVYLQS", "values": [{"measurement": "enzymatic activity using 3-HP as a substrate", "setting": "[4]", "value": "showed activity"}]}, {"molecule": "puuC: E. coli γ-glutamyl-γ-aminobutyraldehyde dehydrogenase, over-expressed (SEQ ID NO 038) (protein, listed as Escherichia coli) MNFHHLAYWQDKALSLAIENRLFINGEYTAAAENETFETVDPVTQAPLAKIARGKSVDIDRAMSAARGVFERGDWSLSSPAKRKAVLNKLADLMEAHAEELALLETLDTGKPIRHSLRDDIPGAARAIRWYAEAIDKVYGEVATTSSHELAMIVREPVGVIAAIVPWNFPLLLTCWKLGPALAAGNSVILKPSEKSPLSAIRLAGLAKEAGLPDGVLNVVTGFGHEAGQALSRHNDIDAIAFTGSTRTGKQLLKDAGDSNMKRVWLEAGGKSANIVFADCPDLQQAASATAAGIFYNQGQVCIAGTRLLLEESIADEFLALLKQQAQNWQPGHPLDPATTMGTLIDCAHADSVHSFIREGESKGQLLLDGRNAGLAAAIGPTIFVDVDPNASLSREEIFGPVLVVTRFTSEEQALQLANDSQYGLGAAVWTRDLSRAHRMSRRLKAGSVFVNNYNDGDMTVPFGGYKQSGNGRDKSLHALEKFTELKTIWISLEA", "values": [{"measurement": "enzymatic activity using 3-HP as a substrate", "setting": "[4]", "value": "showed activity"}]}, {"molecule": "aldB: E. coli acetaldehyde dehydrogenase, his-tagged, over-expressed (SEQ ID NO 024) (protein, listed as Escherichia coli, His tag) MTNNPPSAQIKPGEYGFPLKLKARYDNFIGGEWVAPADGEYYQNLTPVTGQLLCEVASSGKRDIDLALDAAHKVKDKWAHTSVQDRAAILFKIADRMEQNLELLATAETWDNGKPIRETSAADVPLAIDHFRYFASCIRAQEGGISEVDSETVAYHFHEPLGVVGQIIPWNFPLLMASWKMAPALAAGNCVVLKPARLTPLSVLLLMEIVGDLLPPGVVNVVNGAGGVIGEYLATSKRIAKVAFTGSTEVGQQIMQYATQNIIPVTLELGGKSPNIFFADVMDEEDAFFDKALEGFALFAFNQGEVCTCPSRALVQESIYERFMERAIRRVESIRSGNPLDSVTQMGAQVSHGQLETILNYIDIGKKEGADVLTGGRRKLLEGELKDGYYLEPTILFGQNNMRVFQEEIFGPVLAVTTFKTMEEALELANDTQYGLGAGVWSRNGNLAYKMGRGIQAGRVWTNCYHAYPAHAAFGGYKQSGIGRETHKMMLEHYQQTKCLLVSYSDKPLGLF", "values": [{"measurement": "enzymatic activity with natural substrate", "setting": "[5]", "value": "confirmed"}, {"measurement": "enzymatic activity using 3-HP as a substrate", "setting": "[4]", "value": "showed activity"}]}]}
